Paper PMC8880170

Experiments:
[1] = biological target: SARS-CoV-2 nsp15 K290A (SARS-CoV-2); assay: SEC; […] (20 mM Tris-HCl pH 8, 150 mM NaCl); […]
[2] = biological target: SARS-CoV-2 nsp15 N164A (SARS-CoV-2); assay: SEC; […] (20 mM Tris-HCl pH 8, 150 mM NaCl); […]

Question: With SARS-CoV-2 nsp15 K290A (enzyme) as the substance, how does the stoichiometry N [1] read?
Answer: 6

Question: SARS-CoV-2 nsp15 N164A (enzyme) was tested. Which stoichiometry N [2] did it give?
Answer: 6
